The values below come from article PMC6446846 (The Journal of Cell Biology, 2019).

For the assay, the target named is T1, GST-KBP (kinesin-binding protein) (human, UniProt Q96EK5 1-621).
T1 sequence (looked up): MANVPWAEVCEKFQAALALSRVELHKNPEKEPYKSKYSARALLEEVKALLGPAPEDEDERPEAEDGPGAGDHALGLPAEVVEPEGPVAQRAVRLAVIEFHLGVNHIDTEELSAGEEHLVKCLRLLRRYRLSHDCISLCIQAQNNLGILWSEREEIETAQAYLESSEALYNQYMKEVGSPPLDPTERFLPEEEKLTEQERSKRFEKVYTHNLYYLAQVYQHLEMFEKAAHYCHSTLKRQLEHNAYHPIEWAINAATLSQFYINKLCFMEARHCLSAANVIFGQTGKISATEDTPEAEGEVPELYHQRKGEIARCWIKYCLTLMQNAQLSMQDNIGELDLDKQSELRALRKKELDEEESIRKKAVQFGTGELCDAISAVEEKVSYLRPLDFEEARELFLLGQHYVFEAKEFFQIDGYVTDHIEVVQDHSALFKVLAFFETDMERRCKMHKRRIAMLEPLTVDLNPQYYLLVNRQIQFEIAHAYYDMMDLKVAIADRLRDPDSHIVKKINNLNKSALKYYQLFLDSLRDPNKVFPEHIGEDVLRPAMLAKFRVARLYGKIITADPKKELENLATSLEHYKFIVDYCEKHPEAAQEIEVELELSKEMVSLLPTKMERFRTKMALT
The experiment in a line: pull-down.

B1: His6-KIF15-N420 (domain or fragment, human, UniProt Q9NS87 1-420, looked up)
chain: MAPGCKTELRSVTNGQSNQPSNEGDAIKVFVRIRPPAERSGSADGEQNLCLSVLSSTSLRLHSNPEPKTFTFDHVADVDTTQESVFATVAKSIVESCMSGYNGTIFAYGQTGSGKTFTMMGPSESDNFSHNLRGVIPRSFEYLFSLIDREKEKAGAGKSFLCKCSFIEIYNEQIYDLLDSASAGLYLREHIKKGVFVVGAVEQVVTSAAEAYQVLSGGWRNRRVASTSMNRESSRSHAVFTITIESMEKSNEIVNIRTSLLNLVDLAGSERQKDTHAEGMRLKEAGNINRSLSCLGQVITALVDVGNGKQRHVCYRDSKLTFLLRDSLGGNAKTAIIANVHPGSRCFGETLSTLNFAQRAKLIKNKAVVNEDTQGNVSQLQAEVKRLKEQLAELASGQTPPESFLTRDKKKTNYMEYFQE
Consider B1, for which the binding result was “binds”.

B2: KIF18A-N480-GFP-His6 (domain or fragment, human, UniProt Q8NI77 1-480, looked up)
chain: MSVTEEDLCHHMKVVVRVRPENTKEKAAGFHKVVHVVDKHILVFDPKQEEVSFFHGKKTTNQNVIKKQNKDLKFVFDAVFDETSTQSEVFEHTTKPILRSFLNGYNCTVLAYGATGAGKTHTMLGSADEPGVMYLTMLHLYKCMDEIKEEKICSTAVSYLEVYNEQIRDLLVNSGPLAVREDTQKGVVVHGLTLHQPKSSEEILHLLDNGNKNRTQHPTDMNATSSRSHAVFQIYLRQQDKTASINQNVRIAKMSLIDLAGSERASTSGAKGTRFVEGTNINRSLLALGNVINALADSKRKNQHIPYRNSKLTRLLKDSLGGNCQTIMIAAVSPSSVFYDDTYNTLKYANRAKDIKSSLKSNVLNVNNHITQYVKICNEQKAEILLLKEKLKAYEEQKAFTNENDQAKLMISNPQEKEIERFQEILNCLFQNREEIRQEYLKLEMLLKENELKSFYQQQCHKQIEMMCSEDKVEKATGKR
Turning to B2, the binding result is reported as “binds”.
